The series concerns Saccharomyces cerevisiae. Nature of the series: transcriptional activation domain activity (GFP:mCherry ratio, weighted mean of sorted bins, harmonized to initial dataset scale) (arbitrary fluorescence ratio units); higher = stronger transcriptional activation. The note with it: beta-estradiol 1 µM; induction time 4 h. The procedure, abridged:
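In diploid yeast carrying a GFP reporter, barcoded protein tiles fused to an estradiol-inducible synthetic transcription factor were integrated at the URA3 locus. Cultures diluted 1:5 into SC with 1 uM beta-estradiol were kept at 30 °C for 4 hours, then sorted by GFP:mCherry ratio into 8 bins before barcode sequencing. Tiles with under 50 reads were excluded. The activation activity reported here is the read-weighted mean of bin median fluorescence, averaged across barcodes and linearly rescaled to the initial dataset.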
“WSVVFPLQEEEKKKNEEEGLAFPSLDNIKGILRPDSCMRLGSSANIVVLTFPD”: the “transcriptional activation domain activity” value worked out at 53600.

On to “AGGGRKAKATQTGAGASRQKTKTGFQTGRSRRAGNAKTKTNRRAINKPRNGDS”, for which the “transcriptional activation domain activity” value worked out at 28900.

On to “NWYKHINWLNTFFVVIMPMLGFIAAYWVPLHRYTALFAIFYYVHCGLGITAGY”, for which the “transcriptional activation domain activity” value worked out at 68500.

For “MSFLHCFFHVRYFPSNLFVIVIMFLLLFVHSFARGWRMEYAVSFLFNSLVLMY”, the “transcriptional activation domain activity” value came to 61700.

Consider “EEEEPSDEGEGEELDENGDVVMADVSQKSTKSKKEEPAQRYIGSVEVLSKLNL”, for which the “transcriptional activation domain activity” value is under 6570.

Turning to “KHRSSINTVLVVGGDDKVVKQAGDALKGKLGVKGGGKGPRWSGKFIGVWKAAR”, the “transcriptional activation domain activity” value came to 50100.

For “ERLPVDLAVLCTIVEKLFGLAIMTARHRDLGSLHGVLLPRTWILSLWGDFLRF”, the “transcriptional activation domain activity” value came to 71700.

Take “LFSFLFPLLLFFSHSFFFYPFLCPLLLPPSLSFYLPLSLSSLSPIPCICFFSD”: the “transcriptional activation domain activity” value came out at 63200.

On to “PLIPHVLPSLFPCPLFLPLFPPSPLLSPFPPSLCFPLPPFFLFPPLPLFPPFL”, for which the “transcriptional activation domain activity” value is 25600.

On to “AFRWIAAFYGLTLATHFTGTVILVSHIAHHVVQAKCILGHRGGPYFYIMRVLV”, for which the “transcriptional activation domain activity” value amounted to 61400.

As to “AVTCMTIFATISLKLNQQDMLTPWYTSLPLHRRLLHQWFCGLLHWMGFYLVWS”, the “transcriptional activation domain activity” value is 65900.

Regarding “IGYFVPTTKFHGPARFGYLEYADHIFRLYEILDWRVFVGISLFLHWVFSYSHT”, the “transcriptional activation domain activity” value amounted to 39100.

In the case of “HQLGLVMLGMRCDLMRWMVCMDGIEYAGDIVIYCPALLLQLQCIVHTYGWAAR”, the “transcriptional activation domain activity” value came to 41700.

Turning to “VLLLVIFACAIVYLKSLVYSPSPFPTLIACYMSHSNRRYLSVMYGVVLVHQIT”, the “transcriptional activation domain activity” value turned out to be 75600.

With “SGDPDEDGNGHGTHCSGTVAGKKYGVAKKANVYAVKVLRSNGSGSMSDVVKGV”, the “transcriptional activation domain activity” value was determined as 19600.

On to “IWRRQQVELWCNYRVPGRQWLFGHKRLRHVIHLIPGRTHLSLYSSVDRIFCLH”, for which the “transcriptional activation domain activity” value was 48600.

For “MFCLRSWIPVLFFLLRTHASPVYLVLFISATYFLNRPCVYCSLLLFILVVALF”, the “transcriptional activation domain activity” value is 84400.

“RAYGCEAAFITVLQEKINHYTRCARVFYNLNRWVAVRLELLSSLFTTALAAYL”: the “transcriptional activation domain activity” value was 63400.

With “SASASASGATASASASAAAGAGGKGGFGGKGGFGGGFGGKGQGGKGGKGGAAA”, the “transcriptional activation domain activity” value was found to be 34000.

“VSLRSLPYEVGFKQNFNLILNHDASLIKTTVRHLLVYCSLIKAIKLCLIFINK”: the “transcriptional activation domain activity” value was 52500.

“LELNWAIGGGDLKHRMNKLREFLEEGRRVEVLLGPKKRGRKATPEEAQGVVKA”: the “transcriptional activation domain activity” value worked out at 34200.

Turning to “ALDFGLVVRHTTVQYPVPLRFGLLNGNFSFMPLIINSWNMISYILSIYSLVLL”, the “transcriptional activation domain activity” value was found to be 64200.

Take “VPLLDSNFISLNSNPLLYIQNQNPNSNSSVKVSRSQTFEPSKELIDLVFPWLS”: the “transcriptional activation domain activity” value came to 122000.

With “ACAVLLSVVDGLTPLSIICASCSTTGAYWFCCFSMRFFVFIDLLGTLLLYLII”, the “transcriptional activation domain activity” value was found to be 74900.

As to “MSTAGHSRQPDHATVPARSFGGCSTCRRRHIKCDEGRPSCSACRDSGLACGGY”, the “transcriptional activation domain activity” value is 53000.

“VSTCLIKFLALIIEDLHHYFDPFQLKLIGVLVTWYEGAFAKSLFPGELISSEA”: the “transcriptional activation domain activity” value was 52400.

For “MDSGGRLEVHLFFFLLLFVQMWFSWVYFLFSLVFLTLLTRDLGGLLLLVYSFC”, the “transcriptional activation domain activity” value was 34700.

Consider “MLFFHQDTVVGQLFTRYTALIVLIFKSSSVLVFVLFLFFFFFFWPIRILVSFI”, for which the “transcriptional activation domain activity” value came out at 37100.

Take “MLCYAVLWYFVYITFFYINYDMVFLISYLVFLKQLIDRICIIIFIFSFIFFIF”: the “transcriptional activation domain activity” value turned out to be 47400.

As for “NSFPKECEVVHEELRKLTHLVSALPREGLLYHGRLILRYLETVVCACLIMFDG”, the “transcriptional activation domain activity” value was 71100.

Turning to “VNKSGSTYGEELSPKLDSSLVNDTTSLLLPQQPVFVSENVGSEFSSLNEFLSM”, the “transcriptional activation domain activity” value is 108000.

With “EEEGDEDVSGSEGSSRRKGRQRNEEEDDRSAGRRSHRLKDKSRSSTRNRRGSD”, the “transcriptional activation domain activity” value stood at 13600.

Turning to “MAWHFVWQDIPLMGTMHQISYLLNNFIYCFPIAHVHLQVCFFSSLLLIHFYTF”, the “transcriptional activation domain activity” value came out at 68200.

For “ESFKPAPAPKKEEAPKEEAKPAEEGAKAEEAPKEGENKEEAKPAEEPKRRSAS”, the “transcriptional activation domain activity” value is 28400.

For the sequence “RRRRKARSARLKKAEKTAAAVGQEAKPKAENAEGASVPPRRKRRRARSRKPKK”, the “transcriptional activation domain activity” value was determined as 28100.

Take “METATPPQPKKGRRGNPKTRTGCVTCKMRRVKCDEAKPQCKRCISTGRTCDGY”: the “transcriptional activation domain activity” value was determined as 15500.

With “GAVNLSSNERVVFSCRGEVLESKFGRSSKLSPRTFVVTTSKFYIVVQMLVSGQ”, the “transcriptional activation domain activity” value is 37800.

In the case of “FQTFYSNFKRKVLVWSLRFTNLTYNQPLVWHATFVYILALLSMPWFKAKFIPS”, the “transcriptional activation domain activity” value was found to be 43800.

For “LSLVLWCCGLKKSDLAIYLAWTFLVWPGPSPIFCHLSFLLLLLAFFLLPLLSV”, the “transcriptional activation domain activity” value was 78100.

On to “RANMSTQKLAASASRQINAVVVSAGLMEKTVKVRIGQQKWNAHIRKHFNRTSH”, for which the “transcriptional activation domain activity” value is 44400.

With “MLCGAMPIVSLFSFYTFFFVFWCYLLKFFSVMAWLSTHIALLPSFFVLLTFSL”, the “transcriptional activation domain activity” value amounted to 40600.

Turning to “CFSLCFSLCFPFAFPLLFPFFPLLFPLLFPLLSLCFSLCFSLLPFPLELPFLF”, the “transcriptional activation domain activity” value was 37100.

As for “MEHQDFFGFDYGLFDDNFPITSNSLRYDDLFHFEPLDLEQDDLGWGLPDPSLS”, the “transcriptional activation domain activity” value stood at 143000.

For the sequence “MVFGVFFVYVYLSSWVFVLWFFSLSLSHGLAYLSFFPFSFLSFFPSLSLFPPC”, the “transcriptional activation domain activity” value is 62900.

In the case of “AGIRLLERAWYWLHGRYRFTAGYVAELLLNGFKRPHGLLNAYVHHFTNFNITD”, the “transcriptional activation domain activity” value is 72000.

With “STPAAKPTPEPGQQPRKRGRPRIIRDDPPEGGGPPAAKKAKRGRKPKVVAPPA”, the “transcriptional activation domain activity” value is 27400.

On to “MMGLRELHAASREFAMLFWREPRLDLALFLLLFLFFFVLFLFFCLFFFFCLVF”, for which the “transcriptional activation domain activity” value is 15100.

As for “PTWGLVLRLGCGIVYIVIFLVYVGLGGVFPGRYTYWGLSADNAGIMVYVLLCV”, the “transcriptional activation domain activity” value worked out at 60400.

Consider “NGHGTHCSGTVAGKKYGVAKKANVYAVKVLRSNGSGTMSDVVKGVEEAVKMHN”, for which the “transcriptional activation domain activity” value came to 37500.

Take “SDDVNSTMEDDDTPIEKHWLNIDQPLGSEKETTTLSILWMLLLLQLSHICTDP”: the “transcriptional activation domain activity” value amounted to 76600.

Turning to “HVYGPTLVVHRYSLPLLFYYFVLFMFLESLPRLFRCISLFFQLAQLLMLLVPI”, the “transcriptional activation domain activity” value is 34100.

Turning to “EIVDPMQSWLPFQPEASDNVLPDENFFLDDSLFTFGDTLTPNFGPVEWYDLLA”, the “transcriptional activation domain activity” value was 140000.

“GIVLLLNAWKGQKIGFVSKDLNLVYSCIRIANEAEERHIAAGRYVDFMNLLLH”: the “transcriptional activation domain activity” value is 45500.

Regarding “LPKDANLCFGKDFLAMYFYCTAVPTLFMFMVSERLYNALMQLAVFLLLCILHL”, the “transcriptional activation domain activity” value came to 65000.

As for “LILEPPPAGGADGGPPTRSVPSSALRVGDLVLLEKNQRVPADCVLLRTSDAAG”, the “transcriptional activation domain activity” value was found to be 58800.
